We go through two substances from publication doi:10.1101/2020.04.27.064493.

The test addresses human DNMT1 fragment (residues 351-1600) (human) (UniProt P26358). Put plainly: ITC.

Usually Kd stands for the concentration at which binding is half-saturated. Low values mean tighter binding, high ones weaker binding. In turn, “H3_(1-24)K9me3Ub2: H3 (1-24) K9me3 K18C/K23C peptide carrying two ubiquitin(G76C) through dichloroacetone linkage (from UniProt P68431;P0CG48) (complex)” returned a Kd of 17 nM. In turn, “H3_(1-24)Ub2: H3 (1-24) K18C/K23C peptide carrying two ubiquitin(G76C) through dichloroacetone linkage (from UniProt P68431;P0CG48) (complex)” had a Kd of 91 nM.
